From PMC8184781, “A histone H3K4me1-specific binding protein is required for siRNA accumulation and DNA methylation at a subset of loci targeted by RNA-directed DNA methylation” (Nature Communications, 2021) come the findings set out here.

Usually Kd stands for a measure of binding affinity in units of concentration.

The target of the test is H4K20me1 peptide (monomethyllysine at K20). The test can be described thus: ITC; Microcal PEAQ-ITC; peptide (about 1.0–1.5 mM) and protein (about 0.8–0.12 mM as printed) in 100 mM NaCl, 20 mM HEPES pH 7.0, 2 mM β-mercaptoethanol; 20 °C. Particulars: both partners purified.

B1: RDM15 Tudor domain (residues 598–662) (domain or fragment, Arabidopsis thaliana, UniProt Q8GUP3 598-662, looked up)
chain: LGQGKASGESLVGSRIKVWWPMDQAYYKGVVESYDAAKKKHLVIYDDGDQEILYLKNQKWSPLDE
notes: A Se-Met labelled form was also made; the structure was solved by SAD, so the crystal may hold the Se-Met protein; also called C-terminal Tudor domain of RDM15; source: E. coli BL21(DE3), purified (HisTrap, ulp1 digestion, second HisTrap, Superdex G75)
For B1, the Kd was determined as 22.9 µM. This lies in the double-digit micromolar range.
